The numbers were not newly measured in publication PMC3957495, which cites them from elsewhere.

pKd, pKi: −log10 of the molar value.

Data set [1] has as its target CRF (UniProt P06850).
In another data set the target is Urocortin 1 (UniProt P55089).
Data set [2] has as its target CRF (UniProt P06850). This is another data set of the same source.

Chain of sCRF2a receptor (Q60748 20-411): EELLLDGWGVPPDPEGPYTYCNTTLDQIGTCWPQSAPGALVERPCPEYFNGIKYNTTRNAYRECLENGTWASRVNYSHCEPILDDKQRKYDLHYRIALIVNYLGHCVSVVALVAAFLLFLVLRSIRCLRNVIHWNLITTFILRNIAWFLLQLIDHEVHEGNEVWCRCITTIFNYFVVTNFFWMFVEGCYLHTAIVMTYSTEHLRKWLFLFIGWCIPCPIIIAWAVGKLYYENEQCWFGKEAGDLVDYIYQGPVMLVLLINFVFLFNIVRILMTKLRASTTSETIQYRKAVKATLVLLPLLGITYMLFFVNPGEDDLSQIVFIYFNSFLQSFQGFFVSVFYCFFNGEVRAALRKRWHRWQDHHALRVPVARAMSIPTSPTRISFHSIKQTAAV
Chain of CRF (P06850 154-194): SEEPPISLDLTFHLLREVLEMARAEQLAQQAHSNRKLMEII
Chain of Urocortin 1 (P55089 83-122): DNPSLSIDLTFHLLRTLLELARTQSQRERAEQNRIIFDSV
Chain of CRF2a-tr (P47866 20-411): as the sequence (Q60748 20-411) above, with V10E, T19S, V100I, A146T, I168V, I221V, A241P, V253I, M254I, A349S counted along it

sCRF2a receptor (from UniProt Q60748): the results for the pKi with CRF [1] and in the data set with Urocortin 1 were 7.64 and 8.18, respectively.

As for CRF2a-tr (from UniProt P47866), in the data set with CRF [2], the pKd is 7.90.

Broadly, the pKi is the negative decadic logarithm of the Ki, by convention in mol/L. As usually defined, the pKd is −log10 of the Kd, conventionally taken in molar units.
